According to PMC5990521, “Structural basis of DUX4/IGH-driven transactivation”:

Experiments:
Test in all cases: BLI; BLI on Octet Red 96, biotin-DNA-DRE on SA sensors, protein 0.5-32 uM (HD2) or 0.25-16 uM (HD1-HD2); buffer, salt, pH and temperature not given in the material
DUX4 HD2 Q143E = DUX4 HD2 Q143E (human, UniProt Q9UBX2 94-153, Q143E); settings: protein: recombinant; tags: N-terminal His-tag, removed with thrombin; blunt
DUX4 HD2 R148E = DUX4 HD2 R148E (human, UniProt Q9UBX2 94-153, R148E); settings: protein: recombinant; tags: N-terminal His-tag, removed with thrombin; blunt
Chain of DUX4 HD2 R148E (Q9UBX2 94-153 R148E): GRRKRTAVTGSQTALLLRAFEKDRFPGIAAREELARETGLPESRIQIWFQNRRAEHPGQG

DUX4 HD2 R98A = DUX4 HD2 R98A (human, UniProt Q9UBX2 94-153, R98A); settings: protein: recombinant; tags: N-terminal His-tag, removed with thrombin; blunt
Chain of DUX4 HD2 R98A (Q9UBX2 94-153 R98A): as the sequence (Q9UBX2 94-153 R148E) above, with R5A, E55R counted along it

DUX4 HD2 K97A = DUX4 HD2 K97A (human, UniProt Q9UBX2 94-153, K97A); settings: protein: recombinant; tags: N-terminal His-tag, removed with thrombin; blunt
Chain of DUX4 HD2 K97A (Q9UBX2 94-153 K97A): as the sequence (Q9UBX2 94-153 R148E) above, with K4A, E55R counted along it

DUX4 HD2 R95A = DUX4 HD2 R95A (human, UniProt Q9UBX2 94-153, R95A); settings: protein: recombinant; tags: N-terminal His-tag, removed with thrombin; blunt
Chain of DUX4 HD2 R95A (Q9UBX2 94-153 R95A): as the sequence (Q9UBX2 94-153 R148E) above, with R2A, E55R counted along it

DUX4 HD2 N144E = DUX4 HD2 N144E (human, UniProt Q9UBX2 94-153, N144E); settings: protein: recombinant; tags: N-terminal His-tag, removed with thrombin; blunt
Chain of DUX4 HD2 N144E (Q9UBX2 94-153 N144E): as the sequence (Q9UBX2 94-153 R148E) above, with N51E, E55R counted along it

DUX4 HD1-HD2 = DUX4 HD1-HD2 (human, UniProt Q9UBX2 19-153); settings: protein: recombinant; blunt
Chain of DUX4 HD1-HD2 (Q9UBX2 19-153): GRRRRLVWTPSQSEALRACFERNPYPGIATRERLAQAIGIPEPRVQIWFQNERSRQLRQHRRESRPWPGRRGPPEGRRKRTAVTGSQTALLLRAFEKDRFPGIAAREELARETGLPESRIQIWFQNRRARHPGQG

DUX4 HD2 R96A = DUX4 HD2 R96A (human, UniProt Q9UBX2 94-153, R96A); settings: protein: recombinant; tags: N-terminal His-tag, removed with thrombin; blunt
Chain of DUX4 HD2 R96A (Q9UBX2 94-153 R96A): as the sequence (Q9UBX2 94-153 R148E) above, with R3A, E55R counted along it

Chain of DUX4 HD2 Q143E (Q9UBX2 94-153 Q143E): as the sequence (Q9UBX2 94-153 R148E) above, with Q50E, E55R counted along it

B1: biotin-DNA-DRE (BLI) (dsDNA)
DNA 1: TTCTAATCTAATCA
DNA 2: TGATTAGATTAGAA
modifications: biotin
Kd (DUX4 HD2 Q143E): 31 µM
Kd (DUX4 HD2 R148E): 67 µM
binding result (DUX4 HD2 R98A): no binding
binding result (DUX4 HD2 K97A): no binding
binding result (DUX4 HD2 R95A): no binding
Kd (DUX4 HD2 N144E): 55 µM
Kd (DUX4 HD1-HD2): 1400 nM
binding result (DUX4 HD2 R96A): no binding
